Assay results from article PMC10287724, “Structural basis of the interaction between BCL9-Pygo and LDB-SSBP complexes in assembling the Wnt enhanceosome” (Nature Communications, 2023).
Where a chain is given by its changes, count along the chain named.

Legend:
[1] = biological target: GST-hPygo2(58-84) (human) (UniProt Q9BRQ0); experiment: BLI; GST-Pygo2(58-84) wt or mutant loaded on GST biosensors, quenched with free GST; wt or mutant MBP-LDB1-SSBP2 in solution (0.03-30 uM); Octet RED96, 30 °C; KD from steady-state analysis
[2] = biological target: T1, MBP-LDB1(56–285)-SSBP2(1–94) complex, SSBP2 Y72A (human, UniProt Q86U70 56-285; P81877 1-94, Y72A); experiment: BLI
T1 sequence 1: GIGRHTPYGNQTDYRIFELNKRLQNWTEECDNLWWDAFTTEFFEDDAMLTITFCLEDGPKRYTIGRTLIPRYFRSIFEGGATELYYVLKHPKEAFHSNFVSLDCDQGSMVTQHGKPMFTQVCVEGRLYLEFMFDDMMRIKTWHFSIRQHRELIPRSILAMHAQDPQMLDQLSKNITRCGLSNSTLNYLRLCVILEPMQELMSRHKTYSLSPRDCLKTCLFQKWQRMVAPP
T1 sequence 2: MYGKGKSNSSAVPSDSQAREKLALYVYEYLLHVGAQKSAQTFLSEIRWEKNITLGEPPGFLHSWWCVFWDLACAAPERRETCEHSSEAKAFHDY

[3] = biological target: T2, hBCL9ΔHD3-Pygo2 complex, Avi-tagged, biotinylated (human, UniProt O00512 1-1426; Q9BRQ0 1-406, lacking hBCL9(461–489) fragment, biotin on the Avi tag (BirA)); experiment: BLI; Octet RED96; biotinylated Avi-tagged BCL9-Pygo2 (wt or deletion) on SA biosensors, full-length LDB1-SSBP2 in solution at 1000, 300, 100, 30 nM; 30 °C; 20 mM Tris-HCl pH 8.0, 100 mM NaCl, 10 mM DTT, 10 mg/ml BSA; steady-state analysis; settings: both partners purified
T2 construct: B-cell lymphoma 9 protein (BCL9), human, full length lacking HD3 (461-489); Pygopus 2 (Pygo2), human, full length; also called hBCL9^△HD3-Pygo2; HD3-deleted BCL9; source: HEK293S GnTI- cells, co-transfected, purified (Flag beads, Superose 6 SEC), biotinylated with BirA; not shown: Avi, C-terminal, kept
T2 sequence (O00512 other isoform, or with tags, fused parts or gaps with the stated changes, chain 1 of 2): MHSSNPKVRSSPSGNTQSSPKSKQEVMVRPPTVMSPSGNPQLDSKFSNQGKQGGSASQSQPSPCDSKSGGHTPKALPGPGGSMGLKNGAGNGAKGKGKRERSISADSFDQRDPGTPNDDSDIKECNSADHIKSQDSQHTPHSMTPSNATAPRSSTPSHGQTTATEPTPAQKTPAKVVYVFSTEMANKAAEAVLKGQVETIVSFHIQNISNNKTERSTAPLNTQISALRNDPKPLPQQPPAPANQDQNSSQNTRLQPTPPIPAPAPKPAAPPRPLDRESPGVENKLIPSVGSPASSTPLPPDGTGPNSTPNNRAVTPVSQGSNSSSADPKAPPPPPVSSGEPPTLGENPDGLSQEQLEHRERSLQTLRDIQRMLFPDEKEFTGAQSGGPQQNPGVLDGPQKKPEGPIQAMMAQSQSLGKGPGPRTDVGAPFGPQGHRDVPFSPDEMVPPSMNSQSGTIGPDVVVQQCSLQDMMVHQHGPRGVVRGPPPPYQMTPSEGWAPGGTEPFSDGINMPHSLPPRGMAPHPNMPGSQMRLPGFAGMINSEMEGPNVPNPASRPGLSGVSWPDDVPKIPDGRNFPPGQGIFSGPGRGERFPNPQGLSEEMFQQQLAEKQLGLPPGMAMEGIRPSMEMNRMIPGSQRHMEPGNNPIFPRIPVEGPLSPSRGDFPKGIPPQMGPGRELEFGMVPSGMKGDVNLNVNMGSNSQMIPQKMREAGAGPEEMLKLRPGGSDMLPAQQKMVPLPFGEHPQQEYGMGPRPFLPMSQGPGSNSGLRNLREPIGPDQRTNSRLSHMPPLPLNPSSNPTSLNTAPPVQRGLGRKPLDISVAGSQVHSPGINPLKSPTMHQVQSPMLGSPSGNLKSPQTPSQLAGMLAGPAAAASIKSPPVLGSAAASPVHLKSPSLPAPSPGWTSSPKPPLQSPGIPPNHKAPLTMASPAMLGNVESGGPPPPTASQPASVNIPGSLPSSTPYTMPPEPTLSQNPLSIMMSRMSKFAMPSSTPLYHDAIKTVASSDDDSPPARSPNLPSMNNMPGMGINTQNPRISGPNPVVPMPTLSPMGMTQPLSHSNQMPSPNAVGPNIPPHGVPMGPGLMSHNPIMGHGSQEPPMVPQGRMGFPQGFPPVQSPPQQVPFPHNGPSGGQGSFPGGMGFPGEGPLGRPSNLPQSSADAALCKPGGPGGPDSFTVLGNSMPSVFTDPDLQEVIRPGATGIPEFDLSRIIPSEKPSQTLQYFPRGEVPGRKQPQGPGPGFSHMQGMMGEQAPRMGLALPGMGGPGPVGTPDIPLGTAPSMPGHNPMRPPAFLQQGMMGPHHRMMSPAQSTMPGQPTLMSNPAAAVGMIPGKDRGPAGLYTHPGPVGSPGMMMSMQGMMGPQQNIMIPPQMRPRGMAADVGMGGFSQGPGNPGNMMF
T2 sequence (Q9BRQ0 whole entry, stated change not applied, chain 2 of 2, the tested form may be a part): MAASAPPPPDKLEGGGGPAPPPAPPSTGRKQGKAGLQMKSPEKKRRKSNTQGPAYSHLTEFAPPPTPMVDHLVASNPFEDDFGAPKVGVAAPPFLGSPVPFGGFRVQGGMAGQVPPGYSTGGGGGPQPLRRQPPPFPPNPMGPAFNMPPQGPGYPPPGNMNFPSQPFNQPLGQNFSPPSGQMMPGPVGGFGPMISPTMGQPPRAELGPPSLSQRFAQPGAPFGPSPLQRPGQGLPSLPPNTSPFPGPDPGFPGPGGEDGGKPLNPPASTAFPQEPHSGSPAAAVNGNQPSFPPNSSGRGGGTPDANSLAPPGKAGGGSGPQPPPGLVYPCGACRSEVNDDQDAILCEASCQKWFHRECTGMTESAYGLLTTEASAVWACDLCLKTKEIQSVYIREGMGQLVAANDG

[4] = biological target: T3, Avi-tagged wt BCL9-Pygo2 complex, biotinylated (human, UniProt O00512 1-1426; Q9BRQ0 1-406, biotin on the Avi tag (BirA)); experiment: as above; settings: both partners purified
T3 construct: B-cell lymphoma 9 protein (BCL9), human, full length; Pygopus 2 (Pygo2), human, full length; also called Biotinylated BCL9-Pygo2; recombinant BCL9-Pygo; source: HEK293S GnTI- cells, co-transfected, purified (Flag beads, Superose 6 SEC), biotinylated with BirA; not shown: Avi, C-terminal, kept

[5] = biological target: hBCL9ΔHD3-Pygo2 complex, Avi-tagged, biotinylated (human, UniProt O00512 1-1426; Q9BRQ0 1-406, lacking hBCL9(461–489) fragment, biotin on the Avi tag (BirA)); experiment: BLI
[6] = biological target: the molecule itself; experiment: crystal structure; Pygo2(58–84) peptide incubated with LDB1-SSBP2 (co-expressed, co-purified) at 5:1; hanging drop, 100 mM Li2SO4, 100 mM sodium citrate pH 5.6, 1% PEG400, 10 mM DTT, microseeding; 2.45 Å

T3 sequence (O00512 whole entry, chain 1 of 2): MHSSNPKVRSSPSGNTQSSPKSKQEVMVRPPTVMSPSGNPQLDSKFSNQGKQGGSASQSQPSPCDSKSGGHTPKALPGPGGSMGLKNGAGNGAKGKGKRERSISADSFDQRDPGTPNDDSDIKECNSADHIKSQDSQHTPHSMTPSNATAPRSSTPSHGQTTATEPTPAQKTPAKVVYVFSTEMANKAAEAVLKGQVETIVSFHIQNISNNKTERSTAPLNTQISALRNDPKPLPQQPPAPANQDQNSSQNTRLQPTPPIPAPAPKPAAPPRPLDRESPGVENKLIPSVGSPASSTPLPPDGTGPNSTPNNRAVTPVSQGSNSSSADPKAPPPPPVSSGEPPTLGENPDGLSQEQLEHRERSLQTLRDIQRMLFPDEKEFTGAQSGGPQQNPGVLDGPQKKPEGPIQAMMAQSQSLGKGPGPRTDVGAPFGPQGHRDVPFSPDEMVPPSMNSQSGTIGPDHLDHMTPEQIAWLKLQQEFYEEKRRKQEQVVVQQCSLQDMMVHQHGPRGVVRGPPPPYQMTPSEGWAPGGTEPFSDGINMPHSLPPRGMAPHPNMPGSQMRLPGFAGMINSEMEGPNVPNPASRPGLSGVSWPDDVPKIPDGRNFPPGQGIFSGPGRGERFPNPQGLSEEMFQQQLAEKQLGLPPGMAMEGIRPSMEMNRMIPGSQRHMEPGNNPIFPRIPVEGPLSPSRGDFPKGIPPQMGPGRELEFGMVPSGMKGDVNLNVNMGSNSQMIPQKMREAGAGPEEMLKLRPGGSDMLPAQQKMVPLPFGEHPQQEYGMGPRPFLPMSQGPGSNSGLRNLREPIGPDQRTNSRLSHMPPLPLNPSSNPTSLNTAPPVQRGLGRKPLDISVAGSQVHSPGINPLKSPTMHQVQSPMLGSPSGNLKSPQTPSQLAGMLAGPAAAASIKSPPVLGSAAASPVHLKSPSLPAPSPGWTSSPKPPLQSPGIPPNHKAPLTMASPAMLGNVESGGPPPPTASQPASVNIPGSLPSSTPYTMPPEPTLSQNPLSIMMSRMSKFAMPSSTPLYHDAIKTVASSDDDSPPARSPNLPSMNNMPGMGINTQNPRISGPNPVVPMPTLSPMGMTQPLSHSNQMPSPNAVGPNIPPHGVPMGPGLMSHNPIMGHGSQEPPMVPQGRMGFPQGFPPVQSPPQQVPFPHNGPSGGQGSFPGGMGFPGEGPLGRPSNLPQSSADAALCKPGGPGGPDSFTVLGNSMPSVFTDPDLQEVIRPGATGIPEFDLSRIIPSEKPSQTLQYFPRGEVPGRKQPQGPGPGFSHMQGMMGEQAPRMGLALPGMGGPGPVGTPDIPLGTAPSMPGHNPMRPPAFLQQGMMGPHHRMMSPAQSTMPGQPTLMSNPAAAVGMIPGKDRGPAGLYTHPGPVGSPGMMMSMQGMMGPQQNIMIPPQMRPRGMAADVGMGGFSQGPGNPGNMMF
T3 sequence (Q9BRQ0 whole entry, chain 2 of 2): as the sequence (Q9BRQ0 whole entry, stated change not applied, chain 2 of 2, the tested form may be a part) above

For “MBP-LDB1(56-285)-SSBP2(1-94) Y72A complex (from UniProt Q86U70 56-285; P81877 1-94)”, the Kd [1] was 22 µM.

In the case of LTEFAPPPTPMVDHLVASNPFEDDFGA (domain or fragment) [GST-Pygo2(58–84)], the Kd [2] is reported as 22 µM.

B1: LDB1-SSBP2 complex (full-length human proteins) (complex)
chain 1: MSVGCACPGCSSKSFKLYSPKEPPNGNAFPPFHPGTMLDRDVGPTPMYPPTYLEPGIGRHTPYGNQTDYRIFELNKRLQNWTEECDNLWWDAFTTEFFEDDAMLTITFCLEDGPKRYTIGRTLIPRYFRSIFEGGATELYYVLKHPKEAFHSNFVSLDCDQGSMVTQHGKPMFTQVCVEGRLYLEFMFDDMMRIKTWHFSIRQHRELIPRSILAMHAQDPQMLDQLSKNITRCGLSNSTLNYLRLCVILEPMQELMSRHKTYSLSPRDCLKTCLFQKWQRMVAPPAEPTRQQPSKRRKRKMSGGSTMSSGGGNTNNSNSKKKSPASTFALSSQVPDVMVVGEPTLMGGEFGDEDERLITRLENTQFDAANGIDDEDSFNNSPALGANSPWNSKPPSSQESKSENPTSQASQ
chain 2: MYGKGKSNSSAVPSDSQAREKLALYVYEYLLHVGAQKSAQTFLSEIRWEKNITLGEPPGFLHSWWCVFWDLYCAAPERRETCEHSSEAKAFHDYSAAAAPSPVLGNIPPGDGMPVGPVPPGFFQPFMSPRYPGGPRPPLRIPNQALGGVPGSQPLLPSGMDPTRQQGHPNMGGPMQRMTPPRGMVPLGPQNYGGAMRPPLNALGGPGMPGMNMGPGGGRPWPNPTNANSIPYSSASPGNYVGPPGGGGPPGTPIMPSPADSTNSGDNMYTLMNAVPPGPNRPNFPMGPGSDGPMGGLGGMESHHMNGSLGSGDMDSISKNSPNNMSLSNQPGTPRDDGEMGGNFLNPFQSESYSPSMTMSV
notes: the discussion speaks of a 2:4 (LDB1:SSBP2) stoichiometry of the LDB1-SSBP2 core complex; not measured for the full-length complex; also called ChiLS; full-length LDB1-SSBP2 complex; source: HEK293S GnTI- cells, co-transfected, purified (Flag beads, Superose 6 SEC)
B1 was tested, and the binding result [3] was “binds”, the Kd [4] was 0.032 µM and the Kd [5] was 0.039 µM.

B2: human SSBP2(1–94), tag removed (domain or fragment, UniProt P81877 1-94, looked up)
chain: T1 sequence 2 with A72Y
notes: chain of the crystallised complex; not shown: His, N-terminal, cleaved
B2: binds [6].

B3: human LDB1(56–285), tags removed (domain or fragment, UniProt Q86U70 56-285, looked up)
chain: T1 sequence 1
notes: chain of the crystallised complex; source: E. coli BL21 (DE3), co-expressed with SSBP2(1–94), purified (Ni-NTA, TEV cleavage, HiTrap Q, Superdex 200); not shown: His, N-terminal, cleaved; MBP, N-terminal, cleaved
B3: binds [6].
